Test results as given in patent US20050239169.

Target: T1, SELADIN-1
T1 chain: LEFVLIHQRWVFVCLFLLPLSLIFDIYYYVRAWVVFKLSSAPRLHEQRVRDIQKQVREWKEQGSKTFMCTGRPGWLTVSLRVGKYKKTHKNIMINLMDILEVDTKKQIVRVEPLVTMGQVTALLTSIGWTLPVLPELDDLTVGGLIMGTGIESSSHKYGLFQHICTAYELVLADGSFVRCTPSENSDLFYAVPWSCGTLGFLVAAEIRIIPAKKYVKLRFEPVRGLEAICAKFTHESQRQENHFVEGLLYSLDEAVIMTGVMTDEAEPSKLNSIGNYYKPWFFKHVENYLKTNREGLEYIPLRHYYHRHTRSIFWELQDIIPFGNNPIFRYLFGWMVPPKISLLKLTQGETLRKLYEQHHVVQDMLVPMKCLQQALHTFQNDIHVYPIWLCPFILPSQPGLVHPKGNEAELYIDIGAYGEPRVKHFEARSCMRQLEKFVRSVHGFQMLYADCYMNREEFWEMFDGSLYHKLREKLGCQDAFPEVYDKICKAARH

B1: caspase 3 (protein)
chain: SGISLDNSYKMDYPEMGLCIIINNKNFHKSTGMTSRSGTDVDAANLRETFRNLKYEVRNKNDLTREEIVELMRDVSKEDHSKRSSFVCVLLSHGEEGIIFGTNGPVDLKKITNFFRGDRCRSLTGKPKLFIIQACRGTELDCGIETDSGVDDDMACHKIPVEADFLYAYSTAPGYYSWRNSKDGSWFIQSLCAMLKQYADKLEFMHILTRVNRKVATEFESFSFDATFHAKKQIPCIVSMLTKELYFYH
in vitro cleavage of SELADIN-1 (fragment sizes): In vitro cleavage of SELADIN-1 by caspase 3 or 6 generated four different SELADIN-1 fragments of approximately 50, 40, 30 and 20 kDa, respectively

B2: caspase 6 (protein)
chain: AFYKREMFDPAEKYKMDHRRRGIALIFNHERFFWHLTLPERRGTCADRDNLTRRFSDLGFEVKCFNDLKAEELLLKIHEVSTVSHADADCFVCVFLSHGEGNHIYAYDAKIEIQTLTGLFKGDKCHSLVGKPKIFIIQACRGNQHDVPVIPLDVVDNQTEKLDTNITEVDAASVYTLPAGADFLMCYSVAEGYYSHRETVNGSWYIQDLCEMLGKYGSSLEFTELLTLVNRKVSQRRVDFCKDPSAIGKKQVPCFASMLTKKLHFFPKSN
in vitro cleavage of SELADIN-1 (fragment sizes): In vitro cleavage of SELADIN-1 by caspase 3 or 6 generated four different SELADIN-1 fragments of approximately 50, 40, 30 and 20 kDa, respectively
